This note sets out measurements from patent US20080103086A1, “METHODS FOR THE TREATMENT OF DISEASES ASSOCIATED WITH THE SECRETION OF HMGB1” (priority 2006, published 2008).

In one data set the test system is HMGB1 secretion. Briefly: Inhibition of HMGB1 secretion by Protein Kinase C inhibitor in LPS-treated RAW 264.7 cells (Western blot of supernatants). The following applies: 200 ng/mL LPS combined with inhibitor, 16 h, Go 6983 0.1 to 10 μM. Type of data set: cell-based, Murine. As for the experimental part:
RAW 264.7 cells were treated with 200 ng/mL of LPS alone or combined with Gö 6983 (PKC inhibitor) at the indicated concentrations (μM) for 16 h. SB203580 (p38 inhibitor), PD098059 (ERK1/2 inhibitor), Bay 11-7082 (NF-κB inhibitor) were used for comparison. The supernatants were harvested and separated with 12% SDS-PAGE and Western blot was performed to observe the level of HMGB1.
To analyze the secretion of HMGB1 in the supernatants, culture media were replaced with serum-free OPTI-MEM (Gibco BRL) medium and concentrated with Amicon Centricon filtration (Millipore) after removing cell debris, and Western blot analysis was performed. The cytoplasmic and nuclear fractions from 5×10^6 cells were separated using a digitonin-based method (Bird, C. H. et al, Mol Cell Biol 21:5396-5407 (2001)) to observe the levels of HMGB1 in each fraction. The cells were lysed using 1% Nonidet P-40 buffer containing a protease inhibitor cocktail (Sigma), and the protein concentrations were measured by Bradford assay (Biorad) for the analysis of whole cell lysates (WCLs). The protein samples underwent 12% SDS-PAGE and were transferred to a nitrocellulose membrane. Western blot analysis was performed using rabbit anti-HMGB1 (BD Pharmingen) and HRP-labeled goat anti-rabbit Ig as primary and secondary antibodies, respectively.
To observe the inhibition of HMGB1 secretion by PKC inhibitor, RAW 264.7 cells were treated with 200 ng/mL of LPS alone or combined with Gö 6983 (Calbiochem), a conventional PKC (α, β, and γ) inhibitor including PKCδ and PKCζ, at the indicated concentrations for 16 h. Other inhibitors of SB203580 (p38 inhibitor, Calbiochem), PD098059 (ERK1/2 inhibitor, Calbiochem), Bay 11-7082 (NF-κB inhibitor, Calbiochem) were included. The supernatants were harvested and separated with 12% SDS-PAGE and Western blot was performed to observe the level of HMGB1.

Data set [1] has as its target six His-tagged wild type HMGB1 (UniProt P09429).
Data set [2] addresses six His-tagged HMGB1 NLS1/2A, not tagged with GFP (UniProt P09429).
Data set [3] deals with T1, GST-KAP-α1 fusion protein (human, UniProt P52294 1-538).
T1 construct: Produced in E. coli BL21, immobilized on glutathione-Sepharose 4B beads; the primers start at the ATG of the coding region; not shown: glutathione S-transferase (GST) tag encoded by vector pGEX-4T-1 (Pharmacia)
T1 sequence (P52294 whole entry, the tested form may be a part): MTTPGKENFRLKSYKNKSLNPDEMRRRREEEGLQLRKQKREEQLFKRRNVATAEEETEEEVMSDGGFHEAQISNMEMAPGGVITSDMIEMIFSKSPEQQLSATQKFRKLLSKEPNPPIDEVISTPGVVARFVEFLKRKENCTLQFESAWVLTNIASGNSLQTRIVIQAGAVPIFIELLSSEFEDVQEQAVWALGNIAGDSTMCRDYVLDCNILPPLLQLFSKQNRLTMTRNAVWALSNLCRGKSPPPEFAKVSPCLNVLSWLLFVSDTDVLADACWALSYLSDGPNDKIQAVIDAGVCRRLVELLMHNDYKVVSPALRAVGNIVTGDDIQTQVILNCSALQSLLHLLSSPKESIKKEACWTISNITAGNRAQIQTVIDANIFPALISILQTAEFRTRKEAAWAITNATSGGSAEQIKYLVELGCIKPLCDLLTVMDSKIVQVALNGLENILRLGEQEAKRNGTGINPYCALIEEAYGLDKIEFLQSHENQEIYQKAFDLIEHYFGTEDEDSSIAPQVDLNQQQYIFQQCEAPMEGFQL
The experiment in a line: GST pull-down with GST-KAP-α1 on glutathione-Sepharose beads, anti-His blot. How it is done:
Direct binding of recombinant HMGB1 protein to KAP-α1 was tested to exclude the possibility that other HMGB1-interacting proteins present in cell lysates could have a role in binding. Purified six His-tagged wild type HMGB1 protein and boxes A (aa 1-87) and B (aa 88-162) proteins, which were identified at expected size by Coomassie blue staining (FIG. 4B, left), were purified from E. coli BL21. Same molar amounts of all wild and truncated forms of HMGB1 were added to GST-KAP-α1, and GST pull-down assay was performed.

Data set [4] addresses T2, Flag-tagged KAP-α1 (human, UniProt P52294 1-538).
T2 construct: Expressed in co-transfected RAW 264.7 cells; used in co-immunoprecipitation; also called FLAG-KAP-α1; not shown: Flag tag of vector pCMV-Tag2 (Stratagene)
The experiment in a line: co-immunoprecipitation from co-transfected RAW 264.7 cells, Western blot (summed up in Example 7). How it is done:
(§1) To observe the binding of KAP protein to each mutant HMGB1 in the cells, Flag-tagged KAP-α1 and each mutant HMGB1-GFP plasmid were co-transfected into RAW 264.7 cells. Cell homogenates of transfected RAW 264.7 cells were harvested and incubated with mouse anti-Flag (M2, Sigma) and mouse anti-GFP (Santa Cruz) at 4° C. overnight. Immune complexes were collected and the membranes were blotted with anti-Flag and anti-GFP, respectively. The reciprocal experiment was also performed. GST was used as a negative control. And to test the direct binding of HMGB1 to KAP-α1, GST pull-down assay was performed as described above.
(§2) To observe the effect of phosphorylation in both NLS regions of HMGB1 on the binding to KAP-α1 and on the subcellular localization of HMGB1 in the transfected cells, a number of site-directed mutations in six serines of NLS1 and NLS2 were generated using a HMGB1-GFP fusion construct plasmid (FIG. 5A). Serines 35, 39, 42, 46, 53 within or close to NLS1 and serine 181 at NLS2 were alternatively or totally mutated into alanine or glutamic acid. Substitution with alanine and glutamic acid simulated unphosphorylated and a phosphorylated states, respectively. RAW 264.7 cells were co-transfected with a Flag-tagged KAP-α1 plasmid and each mutant HMGB1-GFP plasmid, and immunoprecipitates using anti-GFP (FIG. 5B) or anti-Flag (FIG. 5C) were analyzed with anti-Flag for KAP-α1 or anti-GFP for HMGB1.
On the technique in general: A western blot detects proteins with antibodies after separation by electrophoresis.

For data set [5], the target named is T2, Flag-tagged KAP-α1. The experiment in a line: co-immunoprecipitation from co-transfected RAW 264.7 cells (anti-GFP and anti-Flag), Western blot. How it is done:
as §1, §2

Changes are numbered by the printed parent chain.

T2 sequence (P52294 whole entry): as the sequence (P52294 whole entry, the tested form may be a part) above

For the molecule `COc1ccc2c(c1)c(C1=C(c3c[nH]c4ccccc34)C(=O)NC1=O)cn2CCCN(C)C` [Go 6983, 2-[1-(3-dimethylaminopropyl)-5-methoxyindol-3-yl]-3-(1H-indol-3-yl) Maleimide], the figures for the “levels of HMGB1 in the culture supernatants (HMGB1 secretion)” value (“levels of HMGB1” below) in the data set on HMGB1 secretion and in the data set with HMGB1 secretion (listed as Go6983) were “decreased to undetectable level” and “the secretion of HMGB1 was inhibited”, respectively. With Cdc2 kinase (New England BioLabs), the “in vitro protein kinase assay ([γ-32P]ATP, autoradiography)” value in data set [1] is “CK II and cdc2 showed no phosphorylation of HMGB1”. The same measure, in the same setting: in the case of “casein kinase II (CK II) (New England BioLabs)” it was “CK II and cdc2 showed no phosphorylation of HMGB1”.

Regarding `C[S+]([O-])c1ccc(-c2nc(-c3ccncc3)c(-c3ccc(F)cc3)[nH]2)cc1` (stereo not shown) [SB203580], in the data set on HMGB1 secretion, the “levels of HMGB1” value is recorded as “no change of HMGB1 secretion”. On to `COc1cccc(-c2cc(=O)c3ccccc3o2)c1N` [PD098059], for which the “levels of HMGB1” value with HMGB1 secretion is listed as “no change of HMGB1 secretion”.

For “protein kinase C (PKC) protein (Upstate)”, the “in vitro protein kinase assay ([γ-32P]ATP, autoradiography)” value in data set [2] was “showed little or no phosphorylation compared to the WT HMGB1”; in data set [1], “PKC phosphorylated WT HMGB1”. As to `Cc1ccc(S(=O)(=O)/C=C/C#N)cc1` [Bay 11-7082], the “levels of HMGB1” value with HMGB1 secretion is reported as “decreased in a concentration-dependent manner”.

B1: six His-tagged HMGB1 box B (aa 88-162) (other, human, UniProt P09429 88-162, looked up, not shown: small tags and cut ends)
chain: KFKDPNAPKRPPSAFFLFCSEYRPKIKGEHPGLSIGDVAKKLGEMWNNTAADDKQPYEKKAAKLKEKYEKDIAAY
notes: range 88-162
For B1, the binding result in data set [3] is “no binding”.

B2: six His-tagged HMGB1 box A (aa 1-87) (other, human, UniProt P09429 1-87, looked up)
chain: MGKGDPKKPRGKMSSYAFFVQTCREEHKKKHPDASVNFSEFSKKCSERWKTMSAKEKGKFEDMAKADKARYEREMKTYIPPKGETKK
notes: range 1-87; Includes NLS1 (aa 28-44); Purified from E. coli BL21; also called boxes A (aa 1-87); not shown: 6×His tag and vector-encoded residues of pRSETB (Invitrogen)
B2: in data set [3], the binding result is given as “no binding”.

B3: HMGB1 NLS1/2A (HMGB1-GFP mutant) (other, human, UniProt P09429 1-215, looked up)
chain: MGKGDPKKPRGKMSSYAFFVQTCREEHKKKHPDAAVNFAEFAKKCAERWKTMAAKEKGKFEDMAKADKARYEREMKTYIPPKGETKKKFKDPNAPKRPPSAFFLFCSEYRPKIKGEHPGLSIGDVAKKLGEMWNNTAADDKQPYEKKAAKLKEKYEKDIAAYRAKGKPDAAKKGVVKAEKAKKKKEEEEDEEDEEDEEEEEDEEDEDEEEDDDDE
notes: not shown: EGFP of pEGFP-N1 and linker
In the case of B3, the “interaction relative to wild-type” value with Flag-tagged KAP-α1 [4] is ≥ 50 % of wild-type.

B4: HMGB1 NLS2A (HMGB1-GFP mutant) (other, human, UniProt P09429 1-215, looked up)
chain: B3 chain with A35S, A39S, A42S, A46S, A53S
notes: as for B3
Turning to B4, in the data set with Flag-tagged KAP-α1 [4], the “interaction relative to wild-type” value was ≥ 50 % of wild-type.

B5: HMGB1 NLS1E (HMGB1-GFP mutant) (other, human, UniProt P09429 1-215, looked up)
chain: B3 chain with A35E, A39E, A42E, A46E, A53E, A181S
notes: as for B3
Consider B5, for which the results for the “interaction relative to wild-type” value with Flag-tagged KAP-α1 [5] and in the data set with Flag-tagged KAP-α1 [4] were ~50 % of wild-type and ≥ 50 % of wild-type, respectively.

B6: HMGB1 NLS1A (HMGB1-GFP mutant) (other, human, UniProt P09429 1-215, looked up)
chain: B3 chain with A181S
notes: as for B3
Take B6: in the data set with Flag-tagged KAP-α1 [4], the “interaction relative to wild-type” value was ≥ 50 % of wild-type.

B7: HMGB1 NLS1/2E (HMGB1-GFP mutant) (other, human, UniProt P09429 1-215, looked up)
chain: B3 chain with A35E, A39E, A42E, A46E, A53E, A181E
notes: as for B3
As for B7, the binding result with Flag-tagged KAP-α1 [5] is recorded as “no binding”.

B8: HMGB1 NLS2E (HMGB1-GFP mutant) (other, human, UniProt P09429 1-215, looked up)
chain: B3 chain with A35S, A39S, A42S, A46S, A53S, A181E
notes: as for B3
Consider B8, for which the “interaction relative to wild-type” value was ~50 % of wild-type in the data set with Flag-tagged KAP-α1 [5] and ≥ 50 % of wild-type in the data set with Flag-tagged KAP-α1 [4].
